In this assay the target is SARS-CoV-2 S1 RBD2 (Wuhan RBD, S-protein amino acids 319-541) (SARS-CoV-2 Wuhan, UniProt P0DTC2). The experiment in a line: […] (150 mM NaCl, 20 mM Tris pH 7.5); […], MES pH 5.5, […]. The conditions noted are these: both partners purified.

B1: Fab ICO-hu23 (Fab, V domains shown)
VH: EVQLVQSGAEVKKPGASVKVSCKASGYTFTGYYFHWVRQAPGQGLEWMGWINPISGGTKYAQKFQGWVTMTRATSISTVYMEVSRLRSDDTAVYYCARGHTYNWNYAYCDYWGQGTLVTVSS
VL: SYVLTQPASVSGSPGQSITISCTGTSSDVGVYNYVSWYQQHPGKAPKLMIYDVSNRPSGVSNRFSGSKSGNTASLTISGLQAEDEADYYCSSYTSSSTLVFGGGTKLTVL
B1: the binding result is recorded as “binds”.

The values are drawn from article PMC10395824 (PLOS Pathogens, 2023).
